How the values were obtained:
[1] = molecular target: T1, V-C1-C2 construct of human RAGE (human, UniProt Q15109 23-404); experiment: binding to cells expressing RAGE domain constructs fused to eGFP
T1 construct: also called ABC construct; not shown: eGFP of the vector pEGFP-N2, fused in frame at the C-terminus
Text: The extracellular portion of the RAGE protein contains three domains with similarities to the IgG family. The three domains are V, C1, and C2 (variable, constant 1, and constant 2, respectively). RS07 binds the V domain while RS15 binds an integrated V-C1 domain (FIG. 2B). RAGE constructs used in the present exemplary embodiment include a V-C1-C2 construct starting at amino acid 23 of SEQ ID NO:1 (AQNITA . . . ), immediately following the native signal sequence. The C1-C2 construct starts at amino acid 117 of SEQ ID NO:1 (VYQIPG . . . ), and the C2 construct starts at amino acid 249 of SEQ ID NO:1 (VAPGG . . . ). Domains were predicted on Genbank and by crystal structure. To map antibody binding to individual RAGE domains, the IL2 signal sequence was cloned into pEGFP-N2, into which portions of RAGE were cloned in-frame with IL2 signal sequence (IL2ss) at the 5′ end and in-frame with eGFP at the 3′ end. In addition to the extracellular portions of RAGE, all constructs contain the RAGE transmembrane and C-terminal regions, so the GFP signal should be intracellular, while the IL2ss ensures the RAGE V, C1, and/or C2 motifs are extracellular, and accessible to antibodies. The ABC construct in FIG. 2B includes the V, C1, and C2 domains, and initiates at aa 23 of SEQ ID NO: 1. The BC construct in FIG. 2B includes the C1 and C2 domains, and initiates at aa 116 of SEQ ID NO: 1. […]

[2] = molecular target: T2, Human RAGE (human, UniProt Q15109 23-404); experiment: flow cytometry on human colorectal cancer samples
T2 construct: also called receptor for advanced glycation end products; AGER
T2 sequence (Q15109 23-404): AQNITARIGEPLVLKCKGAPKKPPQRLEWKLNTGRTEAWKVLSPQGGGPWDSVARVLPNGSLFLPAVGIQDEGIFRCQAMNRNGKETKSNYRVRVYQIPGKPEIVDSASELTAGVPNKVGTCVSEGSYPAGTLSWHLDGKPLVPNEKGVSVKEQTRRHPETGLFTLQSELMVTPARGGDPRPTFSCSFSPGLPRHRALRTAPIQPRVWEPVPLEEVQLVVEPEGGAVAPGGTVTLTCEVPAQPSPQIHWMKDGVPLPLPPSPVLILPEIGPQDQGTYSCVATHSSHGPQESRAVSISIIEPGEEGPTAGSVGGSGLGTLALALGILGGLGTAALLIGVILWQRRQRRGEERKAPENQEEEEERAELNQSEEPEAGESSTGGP

T1 sequence (Q15109 23-404): as above

binding result [1]: binds
binding result [2]: binds
B1: RS15 (antibody, V domains shown)
VH: QVQLQQSGAELVRPGTSLKVSCKASGYAFTNYLIEWVNQRPGQGLEWIGVINPGSGGTHYNEKFKGKATLTADKSSSTAYMQLSSLTSDDSAIYFCARSRAVRAMDYWGQGTSVTV
VL: DIVMTQSQKFMSTSVGDRVSVTCKASQNVGTNVAWYQQKPGQSPKSLIYSASYRYSGVPDRFTGSGSGTDFTLTISNVQSEDLAEYFCQQYNSYFFTFGAGTKLELKR
notes: Mouse monoclonal IgG from a hybridoma (BALB/c immunised with human RAGE extracellular domain); also called RFT01; anti-RAGE (RS15)
